Where two headings read alike, the source gives them in different places.
Tests used:
Assay in all cases: cell-based or functional assay
human IL-33 (mm2) [1] = molecular target: T1, human IL-33 (mm2) (human, UniProt O95760 112-270)
T1 chain: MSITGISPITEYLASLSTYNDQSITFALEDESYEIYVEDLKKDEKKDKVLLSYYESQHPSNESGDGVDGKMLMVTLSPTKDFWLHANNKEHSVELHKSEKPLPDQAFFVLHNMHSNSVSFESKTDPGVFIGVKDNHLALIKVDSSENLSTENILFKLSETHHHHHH

human IL-33 WT (R&D) [2] = molecular target: T2, human IL-33 WT (R&D) (human, UniProt O95760 112-270)
T2 sequence: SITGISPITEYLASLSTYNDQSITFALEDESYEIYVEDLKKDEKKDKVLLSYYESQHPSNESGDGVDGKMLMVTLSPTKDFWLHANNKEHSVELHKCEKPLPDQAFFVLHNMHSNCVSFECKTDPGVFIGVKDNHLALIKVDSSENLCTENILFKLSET

[3] = molecular target: T3, cynomolgus monkey IL-33 (cys mut) (cynomolgus monkey)
T3 chain: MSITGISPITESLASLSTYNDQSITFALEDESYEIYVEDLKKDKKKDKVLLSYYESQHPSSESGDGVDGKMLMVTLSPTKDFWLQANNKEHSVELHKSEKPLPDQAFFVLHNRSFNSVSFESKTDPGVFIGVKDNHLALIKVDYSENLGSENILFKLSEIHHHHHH

[4] = molecular target: T4, wild-type cynomolgus monkey IL-33 (cynomolgus monkey)
T4 chain: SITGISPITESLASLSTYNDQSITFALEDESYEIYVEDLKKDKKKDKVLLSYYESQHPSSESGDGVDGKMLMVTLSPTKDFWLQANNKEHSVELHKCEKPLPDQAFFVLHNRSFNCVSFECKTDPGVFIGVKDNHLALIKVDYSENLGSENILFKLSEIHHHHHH

human IL-33 (mm2) [5] = molecular target: T1, human IL-33 (mm2)
[6] = molecular target: T3, cynomolgus monkey IL-33 (cys mut)
human IL-33 (mm2) [7] = molecular target: T1, human IL-33 (mm2)
[8] = molecular target: T3, cynomolgus monkey IL-33 (cys mut)
[9] = molecular target: T5, native human IL-33 from human lung fibroblast (HFL-1) lysate (human, UniProt O95760 1-270, limits assumed)
T5 sequence (looked up): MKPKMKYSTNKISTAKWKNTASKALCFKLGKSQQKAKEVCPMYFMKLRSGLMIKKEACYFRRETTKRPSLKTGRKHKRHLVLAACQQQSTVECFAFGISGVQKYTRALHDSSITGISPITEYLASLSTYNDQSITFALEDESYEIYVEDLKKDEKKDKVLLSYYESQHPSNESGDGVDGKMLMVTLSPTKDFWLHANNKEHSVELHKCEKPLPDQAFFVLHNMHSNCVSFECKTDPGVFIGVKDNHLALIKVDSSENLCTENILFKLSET

human IL-33 (mm2) [10] = molecular target: T1, human IL-33 (mm2)
human IL-33 WT (R&D) [11] = molecular target: T2, human IL-33 WT (R&D); remark: listed apart in the source
[12] = molecular target: T3, cynomolgus monkey IL-33 (cys mut)
[13] = molecular target: T4, wild-type cynomolgus monkey IL-33
human IL-33 (mm2) [14] = molecular target: T1, human IL-33 (mm2)
[15] = molecular target: T3, cynomolgus monkey IL-33 (cys mut)
human IL-33 (mm2) [16] = molecular target: T1, human IL-33 (mm2)
human IL-33 WT (R&D) [17] = molecular target: T2, human IL-33 WT (R&D); remark: listed apart in the source
human IL-33 (mm2) [18] = molecular target: T1, human IL-33 (mm2)

B1: IL33-265 (antibody, human IgG1, kappa, V domains shown)
VH: EVQLVESGGNLEQPGGSLRLSCTASGFTFSRSAMNWVRRAPGKGLEWVSGISGSGGRTYYADSVKGRFTISRDNSKNTLYLQMNSLSAEDTAAYYCAKDSYTTSWYGGMDVWGHGTTVTVSS
VL: DIQMTQSPSSVSASVGDRVTITCRASQGIFSWLAWYQQKPGKAPKLLIYAASSLQSGVPSRFSGSGSGTDFTLTISSLQPEDFAIYYCQQANSVPITFGQGTRLEIKR
- IC50, HEK293 ST2 NFkB (human IL-33 (mm2) [1]): 0.014 nM
- IC50, HEK293 ST2 NFkB (DTT-pretreated IL-33) (human IL-33 WT (R&D) [2]): 0.05 nM
- Cynomolgus monkey:human IC50 ratio: cysteine mutant IL-33 [3]: 109
- IC50, HEK293 ST2 NFkB [3]: 1.56 nM
- Cynomolgus monkey:human IC50 ratio: wild-type IL-33 [4]: 256
- IC50, HEK293 ST2 NFkB (DTT-pretreated IL-33) [4]: 12.7 nM

B2: rat 30A1 (30A1 hybridoma) (antibody, V domains shown)
VH: QVNLLQSGATLVKPGASMKMSCKASGYSFTDYWVSWVKQSHGKSLEWIGEIYPNSGANNFNKEFKDKATLTVDKSTSTAYMELTRLTSEDSAVYYCTRGPYYYSSQIIFAYWGQGTLVTVSS
VL: IIVMTQSPKSMSISVGDRVTMNCKASQNVGNNIAWYRQKPGQSPELLIYYASNRYTGVPDRFTGGGYGTDFTLTINSVQAEDAAFYYCQRIYNSPPTFGGGTKVELK
- IC50, HEK293 ST2 NFkB (human IL-33 (mm2) [5]): 0.665 nM
- IC50, HEK293 ST2 NFkB [6]: 2.95 nM
- IC50, HEK293 ST2 NFkB (human IL-33 (mm2) [7]): 0.47 nM
- IC50, HEK293 ST2 NFkB [8]: 0.14 nM
- % inhibition 0.1 nM Ab, HEK293 ST2 NFkB [9]: 35.4%
- % inhibition 1 nM Ab, HEK293 ST2 NFkB [9]: 77.3%
- % inhibition 10 nM Ab, HEK293 ST2 NFkB [9]: 108%

B3: rat 30B11 (30B11 hybridoma) (antibody, V domains shown)
VH: QVKLLQSGAALVKPGASVKMSCATSGFSFTDYWVSWVKQSHGKGLEWIGEIYPNSGADNFNENFKGKATLTVDKSTSTAYMELSRLTSEDSAIYYCTRGPYYYSTQIIFAYWGQGTLVTVSS
VL: NIVMTQSPKSMSISVGDRVTMNCKASQNVGNNLAWYQQKPGQSPKLLIYYASNRYTGVPDRFTGGGYGTDFTLTINSVQAEDAAFYYCQRIYNSPPTFGGGTKVELR
- IC50, HEK293 ST2 NFkB (human IL-33 (mm2) [5]): 0.056 nM
- IC50, HEK293 ST2 NFkB [6]: 0.2 nM
- IC50, HEK293 ST2 NFkB (human IL-33 (mm2) [7]): 0.038 nM
- IC50, HEK293 ST2 NFkB [8]: 0.084 nM
- % inhibition 0.1 nM Ab, HEK293 ST2 NFkB [9]: 93.5%
- % inhibition 1 nM Ab, HEK293 ST2 NFkB [9]: 108%
- % inhibition 10 nM Ab, HEK293 ST2 NFkB [9]: 113%

B4: IL33-312 (antibody, human IgG1, lambda, V domains shown)
VH: EVQLLESGGGLVQPGGSLRLSCAASGFTFSSYAMSWVRQAPGKGLEWVSGISAIDQSTYYADSVKGRFTISRDNSKNTLYLQMNSLRAEDTAVYYCARQKFMQLWGGGLRYPFGYWGQGTMVTVSS
VL: SYVLTQPPSVSVSPGQTASITCSGEGMGDKYAAWYQQKPGQSPVLVIYRDTKRPSGIPERFSGSNSGNTATLTISGTQAMDEADYYCGVIQDNTGVFGGGTKLTVLG
- IC50, HEK293 ST2 NFkB (human IL-33 (mm2) [10]): 0.003 nM
- IC50, HEK293 ST2 NFkB (human IL-33 WT (R&D) [11]): 0.008 nM
- Cynomolgus monkey:human IC50 ratio: cysteine mutant IL-33 [12]: 1.1
- IC50, HEK293 ST2 NFkB [12]: 0.003 nM
- Cynomolgus monkey:human IC50 ratio: wild-type IL-33 [13]: 5.4
- IC50, HEK293 ST2 NFkB [13]: 0.043 nM

B5: IL33-313 (antibody, human IgG1, lambda, V domains shown)
VH: EVQLLESGGGLVQPGGSLRLSCAASGFTFSSYAMSWVRQAPGKGLEWVSGIADDFTSTYYADPVKGRFTISRDNSKNTLYLQMNSLRAEDTAVYYCARDLWMMNYAGGLRYPFGYWGQGTMVTVSS
VL: SYVLTQPPSVSVSPGQTASITCSGERMGDKYAAWYQQKPGQSPVLVIYRDTKRPSGIPERFSGSNSGNTATLTISGTQAMDEADYYCGVLKQDTGVFGGGTKLTVLG
- IC50, HEK293 ST2 NFkB (human IL-33 (mm2) [10]): 0.006 nM
- IC50, HEK293 ST2 NFkB (human IL-33 WT (R&D) [11]): 0.027 nM
- Cynomolgus monkey:human IC50 ratio: cysteine mutant IL-33 [12]: 206
- IC50, HEK293 ST2 NFkB [12]: 1.2 nM
- Cynomolgus monkey:human IC50 ratio: wild-type IL-33 [13]: 528
- IC50, HEK293 ST2 NFkB [13]: 14.1 nM

B6: IL33-55 (antibody, human IgG1, kappa, V domains shown)
VH: EVQLVESGGGLVQPGGSLRLSCAASGFTFSSYWMYWVRQAPGKGLEWVASITPNGGDTYYPDSVKGRFTISRDNAKNSLYLQMNSLRAEDTAVYYCARGHYYYTSYSLGYWGQGTLVTVSS
VL: DIQMTQSPSSLSASVGDRVTITCKASQNINKHLDWYQQKPGKAPKLLIYFTNNLQTGVPSRFSGSGSGTDFTLTISSLQPEDFATYYCFQYNNGWTFGGGTKVEIKR
- IC50, HEK293 ST2 NFkB (human IL-33 (mm2) [14]): 0.084 nM
- IC50, HEK293 ST2 NFkB [15]: 0.19 nM

B7: IL33-136 (antibody, human IgG1, kappa, V domains shown)
VH: EVQLVESGGGLVQPGGSLRLSCAASGFTFSSYWMYWVRQAPGKGLEWVASITPNGGETYYPDSVKGRFTISRDNAKNSLYLQMNSLRAEDTAVYYCARGHYYYTSYSLGYWGQGTLVTVSS
VL: DIQMTQSPSSLSASVGDRVTITCKASQNINKHLDWYQQKPGKAPKLLIYFTNNLQTGVPSRFSGSGSGTDFTLTISSLQPEDFATYYCFQYNQGWTFGGGTKVEIKR
- IC50, whole blood IFNγ (human IL-33 (mm2) [16]): 0.098 nM
- IC50, HEK293 ST2 NFkB WT IL-33 (human IL-33 WT (R&D) [17]): 0.037 nM

B8: IL33-56 (antibody, human IgG1, kappa, V domains shown)
VH: EVQLVESGGGLVQPGGSLRLSCAASGFTFSSYWMYWVRQAPGKGLEWVASITPNGGETYYPDSVKGRFTISRDNAKNSLYLQMNSLRAEDTAVYYCARGHYYYTSYSLGYWGQGTLVTVSS
VL: DIQMTQSPSSLSASVGDRVTITCKASQNINKHLDWYQQKPGKAPKLLIYFTNNLQTGVPSRFSGSGSGTDFTLTISSLQPEDFATYYCFQYNNGWTFGGGTKVEIKR
- IC50, HEK293 ST2 NFkB (human IL-33 (mm2) [14]): 0.053 nM
- IC50, HEK293 ST2 NFkB [15]: 0.104 nM

B9: IL33-68 (antibody, human IgG1, kappa, V domains shown)
VH: EVQLVESGGGLVQPGGSLRLSCAASGFTFSSYWMYWVRQAPGKGLEWVASITPNGGNTYYPDSVKGRFTISRDNAKNSLYLQMNSLRAEDTAVYYCARGHYYYTAYSLGYWGQGTLVTVSS
VL: DIQMTQSPSSLSASVGDRVTITCKASQNINKHLDWYQQKPGKAPKLLIYFTNNLQTGVPSRFSGSGSGTDFTLTISSLQPEDFATYYCFQYNNGWTFGGGTKVEIKR
- IC50, HEK293 ST2 NFkB (human IL-33 (mm2) [14]): 0.046 nM
- IC50, HEK293 ST2 NFkB [15]: 0.062 nM

B10: rat 7E8 (7E8 hybridoma) (antibody, V domains shown)
VH: EVQLVETGGGLVQPGRSLKLSCKTSGFTFSSYWMYWIRQAPGKGLEWVSSITPNGGNTYYPDSVKGRFTISRDNAENTIYLQMSSLRSEDTATYFCAKGHYYYTSYSLGYWGQGSLVTVSS
VL: EIQMTQSPSVLSASVGDRVTLSCKASQNINKHLDWYQQKLGEAPKLLIYFTNNLQTGIPSRFSGSGSGTDCTLTINSLQPGDVATYFCFQYNNGWTFGGGTKLELD
- IC50, HEK293 ST2 NFkB (human IL-33 (mm2) [5]): 0.018 nM
- IC50, HEK293 ST2 NFkB [6]: 0.21 nM
- IC50, HEK293 ST2 NFkB (human IL-33 (mm2) [18]): 0.024 nM
- IC50, HEK293 ST2 NFkB (human IL-33 (mm2) [7]): 0.043 nM
- IC50, HEK293 ST2 NFkB [8]: 0.032 nM
- % inhibition 0.1 nM Ab, HEK293 ST2 NFkB [9]: 112%
- % inhibition 1 nM Ab, HEK293 ST2 NFkB [9]: 110%
- % inhibition 10 nM Ab, HEK293 ST2 NFkB [9]: 113%

B11: rat 9B3 (9B3 hybridoma) (antibody, V domains shown)
VH: EVQLVETGGGLVQPGRSLKLSCVASGFTFSNYWMYWIRQAPGMGLEWVSSINNDGGNTYYLDSVKGRFTISRNNAENTVYLQMNSLRSEDTATYYCAKGHYSYSSYSFSYWGQGTLVTVSS
VL: DIQMTQSPSVLSASVGDRVTLSCKASHNINKHLDWCQQKVGEAPKLLIYFTNNLQTGIPSRFSGSGSGTDYTLTISSLQPEDVATYFCFQYNSGWTFGGGTKLELK
- IC50, HEK293 ST2 NFkB (human IL-33 (mm2) [5]): 0.076 nM
- % inhibition at 20 nM, HEK293 ST2 NFkB [6]: 23%
- IC50, HEK293 ST2 NFkB (human IL-33 (mm2) [7]): 0.17 nM
- IC50, HEK293 ST2 NFkB [8]: 2.72 nM
- % inhibition 0.1 nM Ab, HEK293 ST2 NFkB [9]: 55.1%
- % inhibition 1 nM Ab, HEK293 ST2 NFkB [9]: 99.2%
- % inhibition 10 nM Ab, HEK293 ST2 NFkB [9]: 108%

Reference: US20180037644A1 (Pfizer, published 2018)
